From patent publication US20230295310A1 (ABCELLERA BIOLOGICS, published 2023)
Positions count from the first letter of the chain named. Each block holds one binder with its values, some of them ahead of it.

Target: human CD3 (human, UniProt P07766 23-207; P04234 22-171; P09693 23-182)
Assay: cell-based or functional assay

Sequence of human CD3 (P07766 23-207, chain 1 of 3): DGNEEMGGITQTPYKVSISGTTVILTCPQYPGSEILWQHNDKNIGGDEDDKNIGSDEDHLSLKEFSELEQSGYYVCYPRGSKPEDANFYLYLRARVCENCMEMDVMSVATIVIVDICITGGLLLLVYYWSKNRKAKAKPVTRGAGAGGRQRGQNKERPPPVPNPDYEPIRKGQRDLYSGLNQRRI
Sequence of human CD3 (P04234 22-171, chain 2 of 3): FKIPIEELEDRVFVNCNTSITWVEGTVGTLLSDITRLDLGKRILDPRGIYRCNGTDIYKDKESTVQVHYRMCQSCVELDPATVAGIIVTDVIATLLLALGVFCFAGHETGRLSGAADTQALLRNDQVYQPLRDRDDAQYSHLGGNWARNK
Sequence of human CD3 (P09693 23-182, chain 3 of 3): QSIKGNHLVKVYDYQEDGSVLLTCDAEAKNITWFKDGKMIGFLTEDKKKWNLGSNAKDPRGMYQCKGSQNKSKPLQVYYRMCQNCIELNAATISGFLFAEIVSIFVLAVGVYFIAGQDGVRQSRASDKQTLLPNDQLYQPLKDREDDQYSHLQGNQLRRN

CD4 EC50 (nM); CD69/CD25 on human T cells, plate-coated antibody: 10.4 nM | CD8 EC50 (nM); CD69/CD25 on human T cells, plate-coated antibody: 11.2 nM
B1: mAb 118 (antibody, V domains shown)
VH: EVQLVESGGGLVQPGRSLRLSCAASGFTFDDYTMHWVRQAPGKGLEWVSGISWNSGSIGYADSVKGRFTISRDNAKNSLYLQMNSLRAEDTALYYCSKDSSGYGYYLNYSLDVWGKGTTVTVSS
VL: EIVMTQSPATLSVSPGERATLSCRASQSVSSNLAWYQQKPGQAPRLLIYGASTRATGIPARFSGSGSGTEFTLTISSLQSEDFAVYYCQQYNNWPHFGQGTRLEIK

CD4 EC50 (nM); CD69/CD25 on human T cells, plate-coated antibody: 6.49 nM | CD8 EC50 (nM); CD69/CD25 on human T cells, plate-coated antibody: 6.59 nM
B6: mAb 117 (antibody, V domains shown)
VH: EVQLVESGGGLVKTGGSLRLSCVASGFSFKKAWMNWVRQAPGKGLEWVGRIKRNTDGGTTDYAAPVKGRFTLSRDDSKNTLYLQMNSLKTEDTAVYYCTTLDSSSLYVGYYYMDVWGKGTTVTVSS
VL: DIQMTQSPSSVSASVGDRVTITCRASQDINNWLAWYQQKPGKAPKLLIYTASSLQSGVPSRFSGSGSGTDFTLTISSLQPEDFATYYCQQAHSLPITFGQGTRLEIK

CD4 EC50 (nM); CD69/CD25 on human T cells, plate-coated antibody: 7 nM | CD8 EC50 (nM); CD69/CD25 on human T cells, plate-coated antibody: 7.16 nM
B7: mAb 115 (antibody, V domains shown)
VH: B6 VH with L18H, T55S, T71I, L106W
VL: B6 VL with L46I, S53N, Y87F, S93G

CD4 EC50 (nM); CD69/CD25 on human T cells, plate-coated antibody: 6.96 nM | CD8 EC50 (nM); CD69/CD25 on human T cells, plate-coated antibody: 7.01 nM
B8: mAb 116 (antibody, V domains shown)
VH: B6 VH with T55S, L106W
VL: B6 VL with S9F, L46I

CD4 EC50 (nM); CD69/CD25 on human T cells, plate-coated antibody: 12.6 nM | CD8 EC50 (nM); CD69/CD25 on human T cells, plate-coated antibody: 12.5 nM
B10: mAb 114 (antibody, V domains shown)
VH: B6 VH with T59P, T60A, N79K, L106W
VL: B6 VL with T20I, Q37L, K39R, T50A, S76G, K107Q

Continued, binder first:

B2: mAb 47 (antibody, V domains shown)
V domain 1: QAQLVQSGSELKKPGASVKVSCKASGYTFTKHSMNWVRQAPGQGLEWMGWINTNTGNPTYAQGFTGRFVFSLDTSVTTAYLQISSLKAEDTAVYYCAREGDYDFWSGFFNFDYWGQGTLVTVSS
V domain 2: B2 V domain 1
CD4 EC50 (nM); CD69/CD25 on human T cells, plate-coated antibody: 23.4 nM | CD8 EC50 (nM); CD69/CD25 on human T cells, plate-coated antibody: 23.8 nM

B3: mAb 110 (antibody, V domains shown)
VH: QVQLVESGGGVVQPGRSLRLSCAASGFTFRSYGMHWVRQAPGKGLEWVAIIWYNGNKKDYVDSVKGRFTISRDNSKNMLYLQMNSLRAEDTALYYCARGPGYNWFDPWGQGTLVTVSS
VL: DIQMTQSPPSLSASVGDRVTITCRASQRISSYLNWYQQRPGKAPKLLIYAASSLQSGVPSRFSGSGSGTDFTLTISSLQPEDFATYYCQQTDSFPLTFGGGTKVEII
CD4 EC50 (nM); CD69/CD25 on human T cells, plate-coated antibody: 13.5 nM | CD8 EC50 (nM); CD69/CD25 on human T cells, plate-coated antibody: 15.3 nM

B4: mAb 111 (antibody, V domains shown)
VH: B6 VH with G10V, T55S, T59A, T60A, G68D, L106W
VL: B6 VL with Q3H, V15L, I21F, D28N, E81D, E105G
CD4 EC50 (nM); CD69/CD25 on human T cells, plate-coated antibody: 6.96 nM | CD8 EC50 (nM); CD69/CD25 on human T cells, plate-coated antibody: 9.42 nM

B5: mAb 112 (antibody, V domains shown)
VH: B6 VH with L18H, T55S, T71I, L106W
VL: B6 VL with L46I, S53N, Y87F
CD4 EC50 (nM); CD69/CD25 on human T cells, plate-coated antibody: 6.48 nM | CD8 EC50 (nM); CD69/CD25 on human T cells, plate-coated antibody: 6.56 nM

B9: mAb 113 (antibody, V domains shown)
VH: B6 VH with L106W
VL: B6 VL with L46I
CD4 EC50 (nM); CD69/CD25 on human T cells, plate-coated antibody: 8.81 nM | CD8 EC50 (nM); CD69/CD25 on human T cells, plate-coated antibody: 8.89 nM
